For one data set, the target named is npRecA monomer (UniProt P0A7G6 31-337, C117M;S118V;Q119R). As to the kind of experiment: EMSA; no nucleotide cofactor; EMSA: standard reaction buffer (composition not in material), 4.5 uM (nt) ssDNA or 9.0 uM dsDNA, agarose gel, no fixation; 6-MI: 25 mM Tris-HCl pH 7.5, 10 mM MgCl2, 1 mM DTT, 25 C, 3.0 uM DNA; DFM: 0.5 mM ATPgS, 10 mM MgCl2, glutaraldehyde fixation. The following applies: protein: recombinant; label: FAM.

For another data set, the target named is RecA-3mΔC (UniProt P0A7G6 2-337, C117M;S118V;Q119R). The data set can be described thus: EMSA; 1.3 mM ATP; 'defective'; EMSA: standard reaction buffer (composition not in material), 4.5 uM (nt) ssDNA or 9.0 uM dsDNA, agarose gel, no fixation; 6-MI: 25 mM Tris-HCl pH 7.5, 10 mM MgCl2, 1 mM DTT, 25 C, 3.0 uM DNA; DFM: 0.5 mM ATPgS, 10 mM MgCl2, glutaraldehyde fixation. The settings on record: protein: recombinant; label: FAM.

Data set [1] concerns the molecule itself. As to the kind of experiment: scanning-probe microscopy in dynamic force mode (DFM); RecA variant (0.2 μM RecA-wt or npRecA dimer, 0.8 μM npRecA monomer) incubated with linear pUC119 dsDNA (2.0 μM), ATPγS (0.5 mM), MgCl2 (10 mM), Tris-HCl pH 7.5, DTT, 30 min at 37°C; fixed with glutaraldehyde (0.2%) on mica; filament formation on DNA; also done with circular phage ssDNA.

RecA-3mΔC, sequence (P0A7G6 2-337 C117M/S118V/Q119R): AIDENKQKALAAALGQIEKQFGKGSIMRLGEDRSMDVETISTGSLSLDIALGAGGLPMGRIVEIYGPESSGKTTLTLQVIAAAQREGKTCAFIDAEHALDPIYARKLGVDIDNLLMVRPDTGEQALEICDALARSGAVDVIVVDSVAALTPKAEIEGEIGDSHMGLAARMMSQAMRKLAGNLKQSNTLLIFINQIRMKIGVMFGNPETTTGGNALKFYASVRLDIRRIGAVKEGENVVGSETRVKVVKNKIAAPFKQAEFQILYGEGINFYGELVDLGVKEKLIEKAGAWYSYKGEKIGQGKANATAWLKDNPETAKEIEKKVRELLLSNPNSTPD
npRecA monomer, sequence (P0A7G6 31-337 C117M/S118V/Q119R): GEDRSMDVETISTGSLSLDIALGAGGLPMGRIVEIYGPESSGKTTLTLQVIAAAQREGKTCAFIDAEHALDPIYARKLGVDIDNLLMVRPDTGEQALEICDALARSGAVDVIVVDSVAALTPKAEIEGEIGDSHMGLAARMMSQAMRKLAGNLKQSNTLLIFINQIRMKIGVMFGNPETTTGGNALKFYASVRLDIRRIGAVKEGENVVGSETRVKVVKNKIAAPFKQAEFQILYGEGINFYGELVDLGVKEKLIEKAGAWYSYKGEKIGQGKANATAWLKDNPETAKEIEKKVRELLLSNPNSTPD

B1: OL2 90-mer ssDNA (ssDNA)
DNA: AAATCAATCTAAAGTATATATGAGTAAACTTGGTCTGACAGTTACCAATGCTTAATCAGTGAGGCACCTATCTCAGCGATCTGTCTATTT
B1: the binding result with npRecA monomer and in the data set with RecA-3mΔC was “no binding” in each case.

B2: Wild-type RecA (RecA-wt) (natural protein, E. coli, UniProt P0A7G6 1-353, looked up)
chain: MAIDENKQKALAAALGQIEKQFGKGSIMRLGEDRSMDVETISTGSLSLDIALGAGGLPMGRIVEIYGPESSGKTTLTLQVIAAAQREGKTCAFIDAEHALDPIYARKLGVDIDNLLCSQPDTGEQALEICDALARSGAVDVIVVDSVAALTPKAEIEGEIGDSHMGLAARMMSQAMRKLAGNLKQSNTLLIFINQIRMKIGVMFGNPETTTGGNALKFYASVRLDIRRIGAVKEGENVVGSETRVKVVKNKIAAPFKQAEFQILYGEGINFYGELVDLGVKEKLIEKAGAWYSYKGEKIGQGKANATAWLKDNPETAKEIEKKVRELLLSNPNSTPDFSVDDSEGVAETNEDF
notes: wild-type RecA, Escherichia coli; source: purified as previously described (21,33)
In the case of B2, the binding result in data set [1] is reported as “binds”.

The values are drawn from paper PMC6237804, “Nonfilament-forming RecA dimer catalyzes homologous joint formation” (Nucleic Acids Research, 2018).
